According to EP3884948A1, “CATHEPSIN INHIBITORS AND USES THEREOF” (Ecole Polytechnique Fédérale de Lausanne (EPFL), priority 2020, dated 2021):

Key:
[1] = target: T1, CTSS-His-WT and CTSS-His-Y132D (Homo sapiens, UniProt P25774); experiment: Mass spectrometry of peptide cleavage by purified CTSS; format: biochemical; conditions: incubated with purified CTSS-His-WT for 30 minutes
T1 construct: made in house; host or cells: HEK293
Method: (§1) For mass spectrometry experiments, CTSS-His WT and Y132D were activated by incubation at 10 µg/mL in Assay buffer (50 mM NaOAc, 5 mM DTT, 250 mM NaCl, pH 4.5) at 37°C for 90 minutes. 2.5 µg of activated CTSS-His WT and Y132D were then co-incubated with 5 ug of peptide in Assay buffer (final volume: 300 µl) at 37°C for 15 or 30 minutes. The reaction was stopped by addition of 50 µM E64 (Selleckchem, cat #S7379) following the co-incubation. Control reactions were prepared by incubating 5 µg of peptide in 300 µl of Assay buffer at 37°C for 15 or 30 minutes. Control and digested peptides were acidified, desalted on C18 StageTips (Rappsilber et al., 2007) and dried by vacuum centrifugation. Samples were resuspended in LC-MS solvent A (2% Acetonitrile, 0.1% TFA) and equivalent sample amounts (3 to 10 ng) injections were performed. Nano-flow separations were achieved on a Dionex Ultimate 3000 RSLC nano UPLC system (Thermo Fischer Scientific) on-line connected with a Q-Exactive Mass-Spectrometer (Thermo Fischer Scientific). Samples were first trapped on a capillary C18 pre-column (Acclaim PepMap™ 100, 75 µm x 2cm) and then separated on a C18 home-made capillary column (ReproSil-Pur C18 AQ 1.9 µm; 50 cm x 75 µm ID) at 250 nl/min over a biphasic 60 min gradient ranging from 99% of solvent A (2% Acetonitrile and 0.1% Formic acid) to 90% of solvent B (90% Acetonitrile and 0.1% Formic acid). The mass spectrometer was operated in Data Dependent acquisition mode using a scan range of 200 to 1500 m/z. MS resolution was set to 70K and MS2 resolution to 17,5K. An isolation window of 2 m/z was used when selecting ions to fragment by HCD and the Normalized Collision Energy (NCE) was set to 27. Data were inspected and dedicated traces extracted with Xcalibur Qual Browser software (Thermo Fischer Scientific). The peptides used were the following: CD74 ([…]) (SEQ ID NO: 16), HSPA1/8 ([…]) (SEQ ID NO: 17), OVA ([…]) (SEQ ID NO: 18), HA ([…]) (SEQ ID NO: 19).

[2] = test system: CTSS-His-WT and CTSS-His-Y132D; experiment: as above; format: biochemical, human; conditions: after 15 minutes of incubation with purified CTSS-His-WT and CTSS-His-Y132D
Method: as §1

| Sequence | cleavage by CTSS [1] | peptides cleaved [2] |
| --- | --- | --- |
| NVKNLYEKVKSQLKNNAKEI [SEQ ID NO: 19] | can cleave | – |
| QLENLRMKLPKPPKPVSKMR [SEQ ID NO: 16] | – | completely cleaved |
| IKVYLPRMKMEEKYNLTSVL [SEQ ID NO: 18] | can cleave | – |
| EEIERMVQEAEKYKAEDEVQ [SEQ ID NO: 17] | – | 35-40% |
